# Source: patent US10441541B2, “Methods and compositions for treating osteoarthritis and promoting cartilage formation” (New York University, priority 2015, dated 2019)
# T1: A3 adenosine receptor (Homo sapiens, UniProt P0DMS8)
# T1 sequence (P0DMS8 1-318): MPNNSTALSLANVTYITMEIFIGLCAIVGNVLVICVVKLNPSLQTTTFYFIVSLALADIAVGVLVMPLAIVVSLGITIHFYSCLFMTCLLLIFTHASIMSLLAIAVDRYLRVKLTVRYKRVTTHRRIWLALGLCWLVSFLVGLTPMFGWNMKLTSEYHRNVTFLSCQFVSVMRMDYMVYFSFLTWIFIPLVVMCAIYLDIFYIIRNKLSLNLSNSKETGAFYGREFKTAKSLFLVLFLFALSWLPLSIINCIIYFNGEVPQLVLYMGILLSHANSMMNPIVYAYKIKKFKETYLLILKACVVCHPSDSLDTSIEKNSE
# Legend:
# [1] = test system: neonatal murine chondrocytes; assay: Aggrecan expression in cultured chondrocytes, Alcian Blue staining; assay type: cell-based; settings: 1 μM
# Source text: (Gosset et al., Nat Protoc 2008; 3:1253-1260). […] Following digital quantitation of alcian-blue stained aggrecan in the tissue wells, aggrecan levels are expressed as % control (±SEM) as provided in FIG. 4B.
# A3 adenosine receptor = molecular target: T1, A3 adenosine receptor; settings: cited from earlier work
# [2] = test system: primary murine chondrocytes; assay: ATP and adenosine content and release of primary chondrocytes after IL-1β; assay type: cell-based, mouse; settings: 5 ng/ml for 24 hours
# Experimental: (§1) Articular chondrocytes were obtained from C57BL/6 WT or A2AKO newborn mice following a protocol previously described (Thirion et al., Methods in Molecular Medicine 2004; 100:1-14), Primary chondrocytes (80% confluence) were starved for 5h. Cells were treated for 24h with mouse recombinant IL-1β (5 ng/ml) in DMEM containing 10% FBS and 1% Penicillin-Steptomycin. For intracellular ATP assay, cells were collected and lysed with RIPA buffer containing proteases and phosphatase inhibitors. […] ATP was assayed using a bioluminescent ATP determination kit following the manufacturer's instructions. Adenosine was extracted and tested by HPLC as previously described. ATP and adenosine data were normalized following protein quantification.
# [3] = test system: rat tibial plateau explants; assay: Adenosine release from tibial plateau explants, with and without mechanical loading; assay type: cell-based
# Experimental: 14 to 19 week old male Sprague-Dawly rats were sacrificed and their tibias were harvested. The soft tissue was removed from the bone and the proximal tibia was cut in the growth plate region by using a Low Speed Diamond Wheel Saw-Model 650 (South Bay Technologies, CA, USA). Tibia surface was cut separating the medial and the lateral condyle. Samples were incubated in media containing DMEM-F12, FBS 10%, 100 ug/ml of ascorbic acid, 2 mM of […], 1% of Penicillin, Streptomycin and amphotericin. The explants were incubated with or without IL-1β (5 ng/ml) for 24 hours. After incubation the samples were placed in a glass plate in new media without FBS. The loading was programmed using the block waveform feature in Wintest 7 software of BOSE Electroforce 3200 system (Bose Inc., MN, USA). The specimens were preloaded with uniaxial compressive load that was applied at 0.005 mm/s loading rate under displacement control up to 0.01 mm. Samples undergo cyclic load at 2 Hz for 1800 cycles at 1.5N compressive load under load control. Dwell for 2700s immediately after the end of 1800th cycle. Media samples were collected after 1, 10 and 15 minutes during loading and 15 and 30 minutes after loading. Samples collected for ATP assay were stored immediately on ice.
# murine chondrocytes = assay: Expression of adenosine-related enzymes and transporters in chondrocytes (RT-PCR, western blot, immunofluorescence); assay type: cell-based, mouse
# Experimental: as §1
# After cell treatments, the total protein extracts were collected and stored at −80° C. Total protein fractions were quantified using the BCA kit (Thermo Scientific). Western blotting was performed by electrophoresing […] protein through a 10% polyacrylamide gel followed by transfer of proteins to nitrocellulose membranes. […] Membranes were scanned with Li-cor Odyssey equipment and the intensities of the protein bands were quantified by densitometric analysis using Image Studio 2.0 38 software. […]
molecule,measurement,setting,value
CCNC(=O)[C@H]1O[C@@H](n2cnc3c(N)nc(NCCc4ccc(CCC(=O)O)cc4)nc32)[C@H](O)[C@@H]1O [CGS21680],aggrecan expression,"[1]; Alcian Blue staining of cultured chondrocyte matrix, preliminary experiments",nearly two-fold increase
same,amount of alcian blue-stained material in wells,[1]; in the absence or presence of IL-1,greatest amount of alcian blue-stained material
Nc1ncnc2c1ncn2[C@@H]1O[C@H](CO)[C@@H](O)[C@H]1O [adenosine],affinity for adenosine,A3 adenosine receptor,low-micromolar range
"IL-1β: Mouse and rat recombinant Il-1β from R&D Systems, inflammatory stimulus (protein, UniProt P10749 118-269, looked up, rat protein also used, Mouse and rat recombinant Il-1β from R&D Systems, inflammatory stimulus) Interleukin-1 beta: VPIRQLHYRLRDEQQKSLVLSDPYELKALHLNGQNINQQVIFSMSFVQGEPSNDKIPVALGLKGKNLYLSCVMKDGTPTLQLESVDPKQYPKKKMEKRFVFNKIEVKSKVEFESAEFPNWYISTSQAEHKPVFLGNNSGQDIIDFTMESVSS",ATP released into the supernates,[2],66±3 % of control
same,adenosine concentration in the supernates,[2],65 % of control
same,intracellular ATP,[2],61±9 % of control
same,adenosine concentration in the supernates,"[2]; n=9, control 143±14 nM",94 ± 14 nM
same,adenosine release from cartilage explants,[3]; explants without loading,reduced adenosine release
same,adenosine release after weight loading,"[3]; pre-treatment 5 ng/ml for 24 hours, loading within physiologic range, n=5, without pre-treatment 1657±177 nM",960 ± 57 nM
same,"message of ENTPD1, NT5E, PANX1, SLC29A1, SLC29A2 and ANKH","murine chondrocytes; 5 ng/ml for 24 hours, RT-PCR, n=4",significantly decrease message
same,NT5E protein expression and localization on chondrocyte surface,"murine chondrocytes; 5 ng/ml, western blot and immunofluorescence",decreased NTSE protein expression and its localization on chondrocyte surface
